# Data reported in patent US20200123260A1 (Pfizer, published 2020).
# Where “and” joins values, the source holds several entries; their conditions need not be identical. Equal values may be shown once.
# T1: human p75NTR (open reading frame from NM_002507) on HEK293 cells (human, UniProt P08138 29-427)
# T1 construct: whole, on cells; also called hu p75NTR
# T1 sequence (looked up): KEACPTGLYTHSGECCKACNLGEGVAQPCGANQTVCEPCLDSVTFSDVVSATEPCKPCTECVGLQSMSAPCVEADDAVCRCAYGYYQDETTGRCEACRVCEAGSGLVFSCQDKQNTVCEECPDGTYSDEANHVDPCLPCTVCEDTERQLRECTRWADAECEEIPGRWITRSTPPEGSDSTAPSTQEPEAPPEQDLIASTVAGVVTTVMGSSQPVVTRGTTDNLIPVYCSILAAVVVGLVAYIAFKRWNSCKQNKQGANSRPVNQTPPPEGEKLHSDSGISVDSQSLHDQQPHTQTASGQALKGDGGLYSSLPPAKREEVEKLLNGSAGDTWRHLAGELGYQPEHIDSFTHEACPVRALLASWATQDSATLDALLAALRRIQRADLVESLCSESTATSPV
# Experiments:
# [1] = biological target: T2, Recombinant human IL13 (R&D Systems) (human, UniProt P35225 35-146, limits assumed); assay: SPR stoichiometry, antibody captured on protein A
# [2] = biological target: T3, Recombinant human CCL20 (Peprotech) (human, UniProt P78556 27-96); assay: SPR stoichiometry, Ab captured on protein A, cytokine at saturation, N = 1
# [3] = biological target: T3, Recombinant human CCL20 (Peprotech); assay: SPR stoichiometry, Ab captured on protein A, cytokine at saturation, N = 2
# [4] = biological target: T2, Recombinant human IL13 (R&D Systems); assay: as above
# [5] = biological target: T4, TrkB, Cat (Felis domesticus) on 293 cells (cat (Felis domesticus)); assay: cell-based ELISA on transiently transfected HEK293 cells
# T4 construct: Whole entry with signal peptide; also called cat TrkB
# [6] = biological target: T5, mouse TrkB (nm_001025074) on HEK293 cells (mouse, UniProt P15209 32-821); assay: as above
# T5 construct: whole, on cells; also called rmuTrkB-CRE
# [7] = biological target: T6, human TrkB (open reading frame from nm_006180) on HEK293 cells (human, UniProt Q16620 32-822); assay: cell-based or functional assay
# [8] = biological target: T7, rhTrkB-ECD (R&D #397-TR/CF) (human, UniProt Q16620 32-430); assay: competition ELISA: plate coated with rhTrkB-ECD; biotinylated chimeric TOA-1 at 25 ng/ml mixed with the unlabeled antibody; streptavidin-HRP
# T7 construct: extracellular domain; Bought protein; also called human TrkB-extracellular domain protein; human TrkB ectodomain protein
# [9] = biological target: T6, human TrkB (open reading frame from …); assay: cell-based or functional assay; remark: listed apart in the source
# [10] = biological target: T8, Mouse TrkB ectodomain protein (R&D #1494-TB/CF) (mouse, UniProt P15209 32-429); assay: SPR (Biacore), TrkB ectodomain immobilised on CM5, antibody injected
# T8 construct: extracellular domain; Bought protein; also called mouse TrkB-extracellular domain protein
# [11] = biological target: T7, rhTrkB-ECD (R&D #397-TR/CF); assay: as above
# [12] = biological target: T9, recombinant human TrkC-Fc (rhTrkC-ECD, R&D system, 373-TC/TF) (human, UniProt Q16288 32-429); assay: direct binding ELISA: plate coated with rhTrkC-ECD (Fc chimera) at 5 ug/ml, biotinylated antibody, streptavidin-HRP
# T9 construct: extracellular domain; Bought protein; not shown: Fc part, not described
# [13] = biological target: T1, human p75NTR (open reading frame from …); assay: FACS on transiently transfected HEK293 cells, FITC-labeled mouse anti-human IgG
# rhTrkB-ECD-His = biological target: T10, rhTrkB-ECD-His (human, UniProt Q16620 32-430); assay: competition ELISA: plate coated with rhTrkB-ECD-His; biotinylated humanized TOA-1 at 25 ng/ml mixed with unlabeled huTOA-1; streptavidin-HRP
# T10 construct: extracellular domain
# [14] = biological target: T4, TrkB, Cat (Felis domesticus) on 293 …; assay: cell-based ELISA on transfected 293 cells
# [15] = biological target: T5, mouse TrkB (nm_001025074) on HEK293 …; assay: cell-based ELISA on transfected 293 cells
# Chimeric TrkB (d4TrkA) = biological target: T11, Chimeric TrkB (d4TrkA) (human); assay: cell-based ELISA on transfected 293 cells
# T11 construct: TrkB residues 190-282 replaced by TrkA residues 187-281
# [16] = biological target: hTrkC in the SHC1 recruitment assay (U2OS, Discoverx Pathhunter) (human, UniProt Q16288 32-839); assay: cell-based or functional assay
# [17] = biological target: hTrkA in the SHC1 recruitment assay (U2OS, Discoverx Pathhunter) (human, UniProt P04629 33-796); assay: cell-based or functional assay
# [18] = biological target: hTrkB-a isoform fused to a small peptide epitope, in U2OS cells (Discoverx Pathhunter) (human, UniProt Q16620 32-822); assay: cell-based or functional assay
# hTrkB-a isoform fused to a small peptide epitope, in U2OS cells (Discoverx Pathhunter), sequence (Q16620 32-430): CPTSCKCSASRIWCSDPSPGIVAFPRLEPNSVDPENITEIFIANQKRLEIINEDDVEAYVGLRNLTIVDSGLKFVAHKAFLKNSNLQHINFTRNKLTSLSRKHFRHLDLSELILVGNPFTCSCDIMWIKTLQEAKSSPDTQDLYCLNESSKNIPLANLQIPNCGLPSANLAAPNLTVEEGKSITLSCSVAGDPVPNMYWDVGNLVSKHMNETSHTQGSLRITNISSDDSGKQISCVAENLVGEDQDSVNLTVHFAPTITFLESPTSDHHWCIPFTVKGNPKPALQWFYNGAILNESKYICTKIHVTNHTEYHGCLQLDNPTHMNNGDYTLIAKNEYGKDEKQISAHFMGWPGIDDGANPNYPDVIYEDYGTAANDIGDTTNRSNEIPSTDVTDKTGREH
# T3 sequence (P78556 27-96 limits assumed): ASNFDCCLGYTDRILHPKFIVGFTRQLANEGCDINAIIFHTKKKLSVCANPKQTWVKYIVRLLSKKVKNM
# T6 sequence (Q16620 32-822): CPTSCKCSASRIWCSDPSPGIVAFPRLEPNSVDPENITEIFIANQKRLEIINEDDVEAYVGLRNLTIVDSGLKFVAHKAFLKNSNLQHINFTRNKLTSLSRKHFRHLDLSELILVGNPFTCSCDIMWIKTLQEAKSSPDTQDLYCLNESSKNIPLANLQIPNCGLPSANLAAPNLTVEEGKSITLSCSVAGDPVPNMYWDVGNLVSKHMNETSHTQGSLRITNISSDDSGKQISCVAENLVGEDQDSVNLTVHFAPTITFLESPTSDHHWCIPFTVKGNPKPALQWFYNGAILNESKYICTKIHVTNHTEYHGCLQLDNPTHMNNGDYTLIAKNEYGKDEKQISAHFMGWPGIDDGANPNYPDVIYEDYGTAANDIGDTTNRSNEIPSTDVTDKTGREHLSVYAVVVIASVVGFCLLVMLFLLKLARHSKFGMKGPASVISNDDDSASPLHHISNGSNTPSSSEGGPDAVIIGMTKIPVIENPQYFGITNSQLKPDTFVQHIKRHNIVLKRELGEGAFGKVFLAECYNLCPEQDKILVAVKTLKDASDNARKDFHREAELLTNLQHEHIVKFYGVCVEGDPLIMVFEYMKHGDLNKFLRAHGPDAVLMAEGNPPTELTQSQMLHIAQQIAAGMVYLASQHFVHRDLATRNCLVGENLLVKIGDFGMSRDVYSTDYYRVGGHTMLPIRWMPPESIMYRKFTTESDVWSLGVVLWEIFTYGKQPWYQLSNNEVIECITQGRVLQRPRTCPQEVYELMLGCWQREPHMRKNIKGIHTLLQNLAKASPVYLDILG
# T2 sequence (P35225 35-146 limits assumed): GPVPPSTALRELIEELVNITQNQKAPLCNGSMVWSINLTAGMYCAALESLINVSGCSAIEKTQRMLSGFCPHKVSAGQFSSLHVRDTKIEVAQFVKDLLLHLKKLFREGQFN
# T5 sequence (P15209 32-821): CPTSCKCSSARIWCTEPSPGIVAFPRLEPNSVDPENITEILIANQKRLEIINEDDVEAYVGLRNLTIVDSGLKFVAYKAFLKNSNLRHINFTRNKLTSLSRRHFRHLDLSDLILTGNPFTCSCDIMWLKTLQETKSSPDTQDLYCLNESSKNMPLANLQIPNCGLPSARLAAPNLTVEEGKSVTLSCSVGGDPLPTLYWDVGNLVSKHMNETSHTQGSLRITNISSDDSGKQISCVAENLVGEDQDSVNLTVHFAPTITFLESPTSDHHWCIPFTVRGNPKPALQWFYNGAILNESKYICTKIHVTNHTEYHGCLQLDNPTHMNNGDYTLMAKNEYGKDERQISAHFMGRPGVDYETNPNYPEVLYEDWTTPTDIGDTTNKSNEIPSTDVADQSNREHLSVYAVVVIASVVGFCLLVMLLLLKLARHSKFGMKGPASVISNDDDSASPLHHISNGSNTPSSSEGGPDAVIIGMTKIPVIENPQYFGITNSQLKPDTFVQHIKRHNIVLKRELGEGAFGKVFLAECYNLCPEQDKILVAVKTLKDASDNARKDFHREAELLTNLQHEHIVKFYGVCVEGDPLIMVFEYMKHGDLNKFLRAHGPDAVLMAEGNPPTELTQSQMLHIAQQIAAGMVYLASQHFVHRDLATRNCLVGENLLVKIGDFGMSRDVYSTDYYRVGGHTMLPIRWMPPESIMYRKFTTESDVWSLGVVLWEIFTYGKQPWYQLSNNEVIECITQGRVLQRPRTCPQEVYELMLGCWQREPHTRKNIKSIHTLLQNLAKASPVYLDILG
# T4 sequence (chain, as listed by the source limits assumed): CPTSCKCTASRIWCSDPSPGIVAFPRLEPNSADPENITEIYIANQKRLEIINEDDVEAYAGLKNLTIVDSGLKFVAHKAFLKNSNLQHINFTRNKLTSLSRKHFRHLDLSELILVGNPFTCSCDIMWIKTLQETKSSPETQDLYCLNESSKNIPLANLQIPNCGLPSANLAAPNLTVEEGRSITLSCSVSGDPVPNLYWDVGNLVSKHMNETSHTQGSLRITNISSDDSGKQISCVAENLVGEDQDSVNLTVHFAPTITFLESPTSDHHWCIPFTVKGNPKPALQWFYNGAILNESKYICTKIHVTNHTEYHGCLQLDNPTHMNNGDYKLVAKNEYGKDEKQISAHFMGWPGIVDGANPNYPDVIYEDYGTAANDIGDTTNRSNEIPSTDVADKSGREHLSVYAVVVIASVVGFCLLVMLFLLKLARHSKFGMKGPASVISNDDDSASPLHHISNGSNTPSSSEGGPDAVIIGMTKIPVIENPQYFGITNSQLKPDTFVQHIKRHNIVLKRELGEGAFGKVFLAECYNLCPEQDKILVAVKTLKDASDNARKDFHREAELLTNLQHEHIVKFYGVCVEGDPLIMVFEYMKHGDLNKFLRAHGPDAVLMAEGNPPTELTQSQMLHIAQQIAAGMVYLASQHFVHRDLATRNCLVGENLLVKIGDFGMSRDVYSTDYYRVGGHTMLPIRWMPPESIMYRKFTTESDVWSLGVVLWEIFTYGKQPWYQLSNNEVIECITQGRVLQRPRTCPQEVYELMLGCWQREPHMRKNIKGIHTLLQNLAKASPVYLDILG
# T7 sequence (Q16620 32-430): as the sequence (Q16620 32-430) above
# T11 sequence (chain, as listed by the source mutant limits assumed): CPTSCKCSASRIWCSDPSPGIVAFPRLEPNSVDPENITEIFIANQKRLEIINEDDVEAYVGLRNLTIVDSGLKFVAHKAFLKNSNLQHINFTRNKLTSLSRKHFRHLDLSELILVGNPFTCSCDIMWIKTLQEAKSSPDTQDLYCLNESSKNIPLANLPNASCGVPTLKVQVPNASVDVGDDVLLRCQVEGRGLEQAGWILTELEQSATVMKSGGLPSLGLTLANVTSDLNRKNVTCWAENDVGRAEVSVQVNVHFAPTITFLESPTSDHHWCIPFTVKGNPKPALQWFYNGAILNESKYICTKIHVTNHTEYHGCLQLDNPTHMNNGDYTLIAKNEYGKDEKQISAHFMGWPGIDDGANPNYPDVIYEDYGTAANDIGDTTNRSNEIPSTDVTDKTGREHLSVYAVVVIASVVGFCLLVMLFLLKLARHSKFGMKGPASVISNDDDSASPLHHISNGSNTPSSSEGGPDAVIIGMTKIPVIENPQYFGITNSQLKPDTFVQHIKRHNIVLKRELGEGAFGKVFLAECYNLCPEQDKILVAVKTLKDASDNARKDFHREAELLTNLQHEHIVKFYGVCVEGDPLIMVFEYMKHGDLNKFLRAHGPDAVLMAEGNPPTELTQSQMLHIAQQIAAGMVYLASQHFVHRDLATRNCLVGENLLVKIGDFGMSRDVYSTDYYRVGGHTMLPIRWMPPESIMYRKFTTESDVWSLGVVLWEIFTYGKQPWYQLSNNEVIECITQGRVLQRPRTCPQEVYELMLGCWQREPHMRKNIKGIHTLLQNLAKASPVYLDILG
# hTrkA in the SHC1 recruitment assay (U2OS, Discoverx Pathhunter), sequence (P04629 33-796): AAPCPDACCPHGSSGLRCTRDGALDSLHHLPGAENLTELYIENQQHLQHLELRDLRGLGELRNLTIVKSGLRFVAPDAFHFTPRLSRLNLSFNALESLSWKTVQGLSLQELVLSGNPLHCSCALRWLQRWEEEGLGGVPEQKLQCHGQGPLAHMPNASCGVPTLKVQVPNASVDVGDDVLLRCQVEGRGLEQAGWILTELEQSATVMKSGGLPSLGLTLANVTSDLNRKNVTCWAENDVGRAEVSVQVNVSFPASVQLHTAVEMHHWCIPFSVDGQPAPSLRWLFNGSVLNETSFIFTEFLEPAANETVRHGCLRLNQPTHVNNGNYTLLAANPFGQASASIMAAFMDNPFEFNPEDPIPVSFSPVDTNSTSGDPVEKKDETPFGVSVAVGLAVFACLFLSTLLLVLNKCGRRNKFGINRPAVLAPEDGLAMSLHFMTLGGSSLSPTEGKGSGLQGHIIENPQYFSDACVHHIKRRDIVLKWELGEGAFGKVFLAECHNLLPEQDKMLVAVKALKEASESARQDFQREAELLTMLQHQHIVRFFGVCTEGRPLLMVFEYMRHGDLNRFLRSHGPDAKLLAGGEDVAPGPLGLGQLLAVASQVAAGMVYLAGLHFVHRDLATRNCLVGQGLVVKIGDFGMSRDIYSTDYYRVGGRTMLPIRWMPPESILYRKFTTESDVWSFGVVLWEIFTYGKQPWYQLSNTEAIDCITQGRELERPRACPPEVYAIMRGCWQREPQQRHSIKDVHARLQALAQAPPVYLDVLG
# T10 sequence (Q16620 32-430): as the sequence (Q16620 32-430) above
# T8 sequence (P15209 32-429): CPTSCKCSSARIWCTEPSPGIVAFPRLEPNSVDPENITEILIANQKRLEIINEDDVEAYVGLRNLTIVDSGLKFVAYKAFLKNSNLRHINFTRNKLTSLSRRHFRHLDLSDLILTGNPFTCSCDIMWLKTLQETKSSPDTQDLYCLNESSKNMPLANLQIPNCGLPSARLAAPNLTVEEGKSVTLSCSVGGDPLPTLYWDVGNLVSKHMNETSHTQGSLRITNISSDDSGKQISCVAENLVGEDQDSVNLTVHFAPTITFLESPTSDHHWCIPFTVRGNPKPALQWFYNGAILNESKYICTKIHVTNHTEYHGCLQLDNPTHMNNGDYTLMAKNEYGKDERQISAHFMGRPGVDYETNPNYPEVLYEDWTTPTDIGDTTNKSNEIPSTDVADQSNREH
binder,measurement,setting,value
"C5 (anti-CCL20 antibody, clone C5, parental) (antibody, human IgG1, kappa, V domains shown, also called anti-CCL20-clone5; CCL20-Clone 5) VH: QVQLVQSGAEVKKPGSSVKVSCKASGGTFSSYAISWVRQAPGQGLEWMGGIIPIFGTANYAQKFQGRVTITADESTSTAYMELSSLRSEDTAVYYCAGGSITGTTPFDYWGRGTLVTVSS VL: AIQLTQSPSSLTASVGDRVTITCRASQFASNDVGWYQQKPGKAPKLLIYAASSLQSGVPPRFSGSGSGTEFTFTISSLQPEDFATYYCLQDYTYPLTFGQGTKVEIKR",binding result,[1],no binding
same,Binding Ratio,[2],2
same,"Binding Ratio (measured, before normalisation)",[2],2.15
same,Binding Ratio,[3],2
same,"Binding Ratio (measured, before normalisation)",[3],2.18
same,Binding Ratio,[4],0
"TAM-163 (huTOA-1 v1.0/1.4) (antibody, human IgG1, kappa, V domains shown, IgG1 with effector-function ablating CH2; Also used biotinylated; also called humanized TOA-1; Humanized TOA1) VH: EVQLVESGGGLVQPGGSLRLSCAASGYSFTAYFMNWVRQAPGKGLEWVARINPNNGDTFYTQKFKGRFTISRDNAKNSLYLQMNSLRAEDTAVYYCARRDYFGAMDYWGQGTLVTVSS VL: DIQMTQSPSSLSASVGDRVTITCRASQTISNNLHWYQQKPGKAPKLLIKSASLAISGVPSRFSGSGSGTDFTLTISSLQPEDFATYYCQQSNSWPNTFGGGTKVEIKR",EC50,[5],0.39 nM
same,EC50,[6],0.34 nM
same,"Cre-luciferase reporter, maximum fold-increase (FIG. 38)",[7],5 fold
same,IC50 (read off the curve),[8],~6 nM
same,"EC50, hTrkB Cre-luc reporter assay, lot L40042-192",[9],0.24 nM and 0.39 nM and 0.61 nM
same,"EC50, hTrkB Cre-luc reporter assay, lot L42385-008",[9],0.25 nM and 0.37 nM
same,"EC50, hTrkB Cre-luc reporter assay, lot L42385-024",[9],0.13 nM
same,"EC50, hTrkB Cre-luc reporter assay, lot L42385-152",[9],0.1 nM
same,"Fold-increase, hTrkB Cre-luc reporter assay, lot L42385-024",[9],5.3 fold
same,"Fold-increase, hTrkB Cre-luc reporter assay, lot L42385-152",[9],4.5 fold
same,Kd,[10],11.4 nM
same,Kd,[11],9.4 nM
same,binding result,[12],no binding (tested: about 6.7 nM)
same,binding result,[13],no binding
same,IC50 (read off the curve),rhTrkB-ECD-His,~8 nM
same,EC50,[14],0.52 nM
same,EC50,[15],0.33 nM
same,binding result,Chimeric TrkB (d4TrkA),binds
same,"Fold-increase, SHC1 recruitment assay",[16],1 fold
same,"Fold-increase, SHC1 recruitment assay",[17],1.1 fold
same,"EC50, SHC1 recruitment assay",[18],0.67 nM
same,"Fold-increase, SHC1 recruitment assay",[18],5.2 fold
